Experimental data reported in PMC11685791, “Noncanonical calcium binding motif controls folding of HopQ1, a Pseudomonas syringae type III secretion effector, in a pH-dependent manner” (Scientific Reports, 2024).
Values joined by “and” are separate entries in the source; they are usually repeats but may differ in a detail not shown here. Identical values can stand only once.

Key:
[1] = biological target: Recombinant HopQ1 with a C-terminal 6 × His epitope (Pseudomonas savastanoi pv. phaseolicola 1448A (former Pseudomonas syringae pv. phaseolicola 1448A)) (UniProt Q48BD8); assay: SEC; gel filtration on Superdex 200, reducing conditions with chelating agent (1 mM EDTA)
[2] = biological target: Recombinant HopQ1 with a C-terminal 6 × His epitope (Pseudomonas savastanoi pv. phaseolicola 1448A (former Pseudomonas syringae pv. phaseolicola 1448A)) (UniProt Q48BD8); assay: SEC-MALS; native (non-reducing) conditions; Superdex 200 10/300GL, 100 mM Tris-HCl, 150 mM NaCl, pH 8.0, 4 °C; 0.4 mg protein per run
[3] = biological target: HopQ1 fused to ECFP or EYFP, expressed in N. benthamiana (Pseudomonas savastanoi pv. phaseolicola 1448A (former Pseudomonas syringae pv. phaseolicola 1448A)) (UniProt Q48BD8); assay: FRET or BRET; FLIM-FRET in nuclei of N. benthamiana leaf cells; donor fused to ECFP, acceptor fused to EYFP, transiently co-expressed; eight to ten nuclei per combination
[4] = biological target: the molecule itself; assay: SEC; gel filtration on Superdex 200 of the calcium-site mutant; 'all the conditions tested' (not listed for the mutant)
[5] = biological target: the molecule itself; assay: SEC; gel filtration on Superdex 200, reducing conditions with chelating agent (1 mM EDTA)

Recombinant HopQ1 with a C-terminal 6 × His epitope (from UniProt Q48BD8 1-447) (natural protein)
stoichiometry N [1]: 2
stoichiometry N [2]: 2 and 3

Nt14-3-3a-ECFP (natural protein)
FRET efficiency [3]: 14.2%

B1: HopQ1-D107A_D108A (recombinant, 6 × His) (natural protein)
chain: MHRPITAGHTTSRLILDQLKQISRTPSESSVQSALSQQASMSSPVLERSKSAPALLTAAQRTMLAQVGACNSHLTSDENMAINELRLHKPRLPKDTWFFTDPNKDPAAVVTYTLGKQLQAEGFVHITDVVATLGDAEVRSQRAEMAKGVFNKLGLHDVHVSRGRDYAMNSLQSKEHAKFLLEGHALRAGPGEIHRDSLQDMSRRLARAPHGVGIVVIAGMSDINALITTCPDMVRERVDDITIMGGVEPLKDADGFVQPDARAYNNATDMDAARSLYRKAQELGIPLRIVTKEAAYKTAVSPSFYEGIAGSGHPVGHYLRDVQKSALKGLWEGIQAGLLPGLDDSWFFRTFMPNAQIEAAQLDKNKESSFEDIWPKVTKLNLYDPLTLLASVPGAAKLLFKPKAIHTEGFGVVEQVGPDDVTHPEKAKLLMSALAKSALVQSTVAPD
notes: HopQ1 of Pseudomonas savastanoi pv. phaseolicola 1448A, GenBank AAZ37975.1, with D107A and D108A; source: E. coli BL21 Rosetta, purified
stoichiometry N [4]: 2

B2: RihA, a pyrimidine-specific ribonucleoside hydrolase from E. coli K-12 (enzyme, UniProt P41409 1-311, looked up)
chain: MALPILLDCDPGHDDAIAIVLALASPELDVKAITSSAGNQTPEKTLRNVLRMLTLLNRTDIPVAGGAVKPLMRELIIADNVHGESGLDGPALPEPTFAPQNCTAVELMAKTLRESAEPVTIVSTGPQTNVALLLNSHPELHSKIARIVIMGGAMGLGNWTPAAEFNIYVDPEAAEIVFQSGIPVVMAGLDVTHKAQIHVEDTERFRAIGNPVSTIVAELLDFFLEYHKDEKWGFVGAPLHDPCTIAWLLKPELFTSVERWVGVETQGKYTQGMTVVDYYYLTGNKPNATVMVDVDRQGFVDLLADRLKFYA
notes: RihA (also known as YbeK), pyrimidine-specific ribonucleoside hydrolase of E. coli K-12; also called YbeK; source: E. coli BL21 Rosetta, purified
stoichiometry N [5]: 4
